Reference: the supplement of paper PMC10724198
± gives the standard deviation of the averaged measurements.

System: Saccharomyces cerevisiae
Assay: protein stability index of tFT-peptide fusion (C-terminal peptide) (PSI (0-1 scale)); higher = more stable (slower turnover)
Conditions: temperature: 30 C
Procedure: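 MPS profiling in S. cerevisiae of the yeast C-terminome library: the last 12 aa of each annotated ORF are fused to the C-terminus of a sfGFP-mCherry timer, after a GGGS linker. Cells are FACS-sorted into 8 mCherry/sfGFP bins and deep-sequenced. PSI runs from 0 (unstable) to 1 (stable); wild type and das1Δ backgrounds, two technical replicates each.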

[1] = genetic background: das1 deletion

| Sequence | protein stability index [1] | protein stability index (genetic background: wild type) |
| --- | --- | --- |
| VHDQTNLELYYL [HUB1 C-terminal 12 aa] | 0.708 ± 0.0075 | 0.6895 ± 0.0058 |
| MVGVLFFWVWIT [BET1 C-terminal 12 aa] | 0.201 ± 0.0064 | 0.123 ± 0.018 |
| ELKKIILESSMK [EXO5 C-terminal 12 aa] | 0.698 ± 0.059 | 0.68 ± 0.011 |
| IWVVDSLGSLVG [YPL142C C-terminal 12 aa] | 0.6847 ± 0.00084 | 0.699 ± 0.037 |
| EKWASQFGSSGS [SAP1 C-terminal 12 aa] | 0.702 ± 0.024 | 0.685 ± 0.014 |
| SVTAGYLPDLWR [YCH1 C-terminal 12 aa] | 0.73 ± 0.0093 | 0.728 ± 0.036 |
| QMSAMTEKFGKL [YKL068W-A C-terminal 12 aa] | 0.726 ± 0.0095 | 0.693 ± 0.015 |
| NNGSSNNNTQNT [SNF5 C-terminal 12 aa] | 0.67 ± 0.014 | 0.673 ± 0.022 |
| EDVKEEESKVGA [IOC4 C-terminal 12 aa] | 0.691 ± 0.033 | 0.664 ± 0.0082 |
| AAGVGSVHGINR [COY1 C-terminal 12 aa] | 0.7 ± 0.03 | 0.6645 ± 0.0066 |
| LCPVFFTWTNLR [YSR3 C-terminal 12 aa] | 0.656 ± 0.008 | 0.656 ± 0.034 |
| GAGVMAAAAMLL [TIR2 C-terminal 12 aa] | 0.714 ± 0.029 | 0.7089 ± 0.0066 |
| SKILFLCQINIS [YNR042W C-terminal 12 aa] | 0.312 ± 0.03 | 0.313 ± 0.015 |
| YTVLEDDANDEK [HAP1 C-terminal 12 aa] | 0.673 ± 0.017 | 0.7 ± 0.027 |
| RIIEYFEEYQCW [FRE6 C-terminal 12 aa] | 0.712 ± 0.014 | 0.731 ± 0.042 |
| IHENEESNENEG [RQC1 C-terminal 12 aa] | 0.702 ± 0.0099 | 0.663 ± 0.011 |
| EDKDSESFSEVC [YCG1 C-terminal 12 aa] | 0.702 ± 0.016 | 0.705 ± 0.011 |
| SLLGIQKSVRNL [MDM20 C-terminal 12 aa] | 0.691 ± 0.056 | 0.6654 ± 0.006 |
| RRDYWLSKGQAL [TRF5 C-terminal 12 aa] | 0.7173 ± 0.0032 | 0.725 ± 0.032 |
| GYKPIILYHVIH [YDL025W-A C-terminal 12 aa] | 0.691 ± 0.024 | 0.598 ± 0.025 |
| LCLLESLDCLAK [PMT7 C-terminal 12 aa] | 0.6692 ± 0.0024 | 0.68 ± 0.017 |

| Sequence | protein stability index [1] | protein stability index (genetic background: wild type) |
| --- | --- | --- |
| TPVIDFSLKLAH [BNA6 C-terminal 12 aa] | 0.693 ± 0.017 | 0.7 ± 0.026 |
| GCVRSMLRDLQR [GCR2 C-terminal 12 aa] | 0.6733 ± 0.0057 | 0.686 ± 0.01 |
| KAPKSPEVIEID [UFD1 C-terminal 12 aa] | 0.6978 ± 0.0035 | 0.684 ± 0.027 |
| FSFTEEPRIVMI [DCD1 C-terminal 12 aa] | 0.689 ± 0.02 | 0.699 ± 0.03 |
| GSSGRLTASPVY [PEX2 C-terminal 12 aa] | 0.696 ± 0.023 | 0.684 ± 0.022 |
| RWHIQRITSPLS [STP22 C-terminal 12 aa] | 0.74 ± 0.048 | 0.719 ± 0.028 |
| SQFVNDPFWANI [HIS2 C-terminal 12 aa] | 0.757 ± 0.031 | 0.756 ± 0.04 |
| FSAGNYKLPPGI [KTR3 C-terminal 12 aa] | 0.68 ± 0.011 | 0.7009 ± 0.0015 |
| KPEFVDIINSRN [TPI1 C-terminal 12 aa] | 0.7145 ± 0.0052 | 0.691 ± 0.026 |
| IKIRIYSPRSIS [YDL240C-A C-terminal 12 aa] | 0.715 ± 0.017 | 0.519 ± 0.021 |
| KQNIPRKPNVDI [BNS1 C-terminal 12 aa] | 0.6875 ± 0.0057 | 0.677 ± 0.018 |
| RIELSKYYNTNL [YPD1 C-terminal 12 aa] | 0.6986 ± 0.0043 | 0.716 ± 0.059 |
| ARLVSNEPILLD [CWC23 C-terminal 12 aa] | 0.725 ± 0.026 | 0.704 ± 0.053 |
| FRHNRSNKKSGC [GEX2 C-terminal 12 aa] | 0.707 ± 0.032 | 0.668 ± 0.069 |
| WLTTKMSSSEAS [UIP4 C-terminal 12 aa] | 0.708 ± 0.014 | 0.741 ± 0.025 |
| HETFDFRNLKLR [YER121W C-terminal 12 aa] | 0.701 ± 0.043 | 0.698 ± 0.024 |
| KVHRKKVPGCTI [YGR011W C-terminal 12 aa] | 0.697 ± 0.015 | 0.686 ± 0.029 |
| NHFHYDCVYRYC [YOR333C C-terminal 12 aa] | 0.6939 ± 0.0038 | 0.404 ± 0.03 |
| DPFDTNLSIKLS [YMR075C-A C-terminal 12 aa] | 0.696 ± 0.026 | 0.6827 ± 0.0066 |
| EKPKKKEVEKTA [NOG2 C-terminal 12 aa] | 0.684 ± 0.012 | 0.688 ± 0.018 |
| YLYVFLQQARLE [YBR032W C-terminal 12 aa] | 0.51 ± 0.029 | 0.473 ± 0.018 |

| Sequence | protein stability index [1] | protein stability index (genetic background: wild type) |
| --- | --- | --- |
| YLKLRGANFVLK [IES6 C-terminal 12 aa] | 0.695 ± 0.013 | 0.684 ± 0.011 |
| KLYILKHLGSKQ [RRG9 C-terminal 12 aa] | 0.681 ± 0.037 | 0.685 ± 0.019 |
| GVSFHVQVTMPQ [TRS33 C-terminal 12 aa] | 0.711 ± 0.023 | 0.704 ± 0.049 |
| TTIKNIDILNRT [SMC4 C-terminal 12 aa] | 0.717 ± 0.024 | 0.694 ± 0.048 |
| VTIFTWSSLLFV [TED1 C-terminal 12 aa] | 0.438 ± 0.0058 | 0.454 ± 0.0084 |
| EAASDEHFSRVV [YGL185C C-terminal 12 aa] | 0.709 ± 0.02 | 0.733 ± 0.021 |
| FHLRHHKGAEEH [ATP17 C-terminal 12 aa] | 0.7076 ± 0.0039 | 0.678 ± 0.019 |
| ADETVDFYVYDE [SWD2 C-terminal 12 aa] | 0.744 ± 0.027 | 0.698 ± 0.06 |
| NCANCVYFSSRG [YDL221W C-terminal 12 aa] | 0.7169 ± 0.0029 | 0.716 ± 0.043 |
| REAKNLPKPSFL [EDC1 C-terminal 12 aa] | 0.70153 ± 0.00024 | 0.698 ± 0.0091 |
| VTGSVPAYCDDD [ART5 C-terminal 12 aa] | 0.6825 ± 0.0031 | 0.694 ± 0.011 |
| DDEDEEDDDFKE [CHZ1 C-terminal 12 aa] | 0.725 ± 0.021 | 0.671 ± 0.017 |
| NYEITPYENVHV [TOS2 C-terminal 12 aa] | 0.682 ± 0.026 | 0.7131 ± 0.0041 |
| PSNASNTTTRRP [YKR045C C-terminal 12 aa] | 0.703 ± 0.032 | 0.6901 ± 0.0053 |
| LPSPRFFSPITL [YER158W-A C-terminal 12 aa] | 0.685 ± 0.024 | 0.702 ± 0.008 |
| IDKFLDHIGKSQ [FBP1 C-terminal 12 aa] | 0.698 ± 0.025 | 0.703 ± 0.012 |
| ECPRFSNKHGRN [YDR169C-A C-terminal 12 aa] | 0.701 ± 0.0084 | 0.681 ± 0.014 |
| TDGSKEDVDALP [ZNF1 C-terminal 12 aa] | 0.688 ± 0.02 | 0.716 ± 0.039 |
| RSTFLMHGRLAT [MAK3 C-terminal 12 aa] | 0.707 ± 0.02 | 0.702 ± 0.019 |
| HETMVNGSKRRL [DIF1 C-terminal 12 aa] | 0.686 ± 0.014 | 0.639 ± 0.014 |
| YGLNIGRPDFYR [TAF10 C-terminal 12 aa] | 0.725 ± 0.016 | 0.7099 ± 0.0023 |

| Sequence | protein stability index [1] | protein stability index (genetic background: wild type) |
| --- | --- | --- |
| FVFALSYPYEEI [ALG2 C-terminal 12 aa] | 0.713 ± 0.011 | 0.693 ± 0.038 |
| QYDYELIQVQCS [PPN2 C-terminal 12 aa] | 0.431 ± 0.043 | 0.51 ± 0.032 |
| TTEKKKKKCVLL [RHO1 C-terminal 12 aa] | 0.684 ± 0.0099 | 0.6878 ± 0.0017 |
| TNGLINQFKEWM [PGI1 C-terminal 12 aa] | 0.673 ± 0.015 | 0.736 ± 0.082 |
| QAKLTAATNAKQ [PDC1 C-terminal 12 aa] | 0.698 ± 0.018 | 0.716 ± 0.035 |
| DGVENTPVESQQ [NMD3 C-terminal 12 aa] | 0.6821 ± 0.0024 | 0.707 ± 0.0061 |
| EKLILAKKDQPN [IST3 C-terminal 12 aa] | 0.6926 ± 0.0055 | 0.709 ± 0.046 |
| QFFFTSRQKNYV [ERP4 C-terminal 12 aa] | 0.707 ± 0.014 | 0.654 ± 0.01 |
| VETELEMVAEKA [YEH1 C-terminal 12 aa] | 0.646 ± 0.0079 | 0.665 ± 0.061 |
| DLLNKESEYLNI [FAR11 C-terminal 12 aa] | 0.705 ± 0.012 | 0.755 ± 0.061 |
| VRKNVTWNNLWE [CTF18 C-terminal 12 aa] | 0.705 ± 0.013 | 0.682 ± 0.042 |
| RGSEHYTKRKKI [UBS1 C-terminal 12 aa] | 0.687 ± 0.022 | 0.6822 ± 0.0035 |
| WRQEYPGVDEFF [PRM8 C-terminal 12 aa] | 0.742 ± 0.0099 | 0.748 ± 0.045 |
| VSGFYDHDINGY [APJ1 C-terminal 12 aa] | 0.7529 ± 0.0033 | 0.722 ± 0.0078 |
| FGYESTDQILKL [NNR1 C-terminal 12 aa] | 0.738 ± 0.0047 | 0.708 ± 0.054 |
| DAKFMMQASCSS [FMP40 C-terminal 12 aa] | 0.6897 ± 0.0051 | 0.682 ± 0.035 |
| RFLDYVRELESF [PDX1 C-terminal 12 aa] | 0.698 ± 0.014 | 0.70618 ± 0.0004 |
| LDKEMADYFEKK [YRA1 C-terminal 12 aa] | 0.693 ± 0.013 | 0.706 ± 0.035 |
| TFVDDKLKELPQ [PTP3 C-terminal 12 aa] | 0.719 ± 0.042 | 0.655 ± 0.0034 |
